± gives the half width of the 95% confidence interval.
Assays:
[1] = folding stability dG unfold from trypsin proteolysis; higher = more stable
Description: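 Folding stability of de novo designed mini-proteins (<80 aa, no Cys; designed by TrROS, TrMRF, ProteinMPNN and the joint model) was measured by cDNA display proteolysis with trypsin and chymotrypsin. Each protease was used at 11 concentrations in a threefold dilution series plus a no-protease condition. K50 was inferred by Bayesian fitting of sequencing counts, and dG unfold was derived against a sequence-predicted unfolded-state K50 (Tsuboyama et al. method). Sequences shown include variable-length N-terminal GS-type padding (SAGGSAGG...) inside a display construct carrying a PA tag. Rows were kept only if the AF2 dimer inter-PAE was >15, to exclude likely homo-oligomers.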

[2] = folding stability dG unfold (combined trypsin and chymotrypsin); higher = more stable
Method in brief: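 Digests were run with trypsin and chymotrypsin at 11 concentrations in threefold dilutions, plus a no-protease condition, on designed mini-proteins in a PA-tagged cDNA display construct. The mini-proteins were under 80 residues, had no cysteine, and were kept only when AlphaFold2 dimer inter-PAE was above 15. After sequencing, Bayesian fitting of the counts gave K50, from which unfolding free energy was derived against a sequence-predicted unfolded-state K50 and a shared folded-state K50, per protease or combined.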

Sequence | folding stability dG unfold [1] [kcal/mol] | folding stability dG unfold [2] [kcal/mol]
SAGGSAGGSAPPPLPPDAVVTIPNPGSLEEVKKLAEKLREEHGIKKIKITVEPNSVTLTVASAGGSAGGSAG [r3_73_JUSTAS] | 0.476 ± 0.15 | < -1
SAGGSAGGSASLPEKLAQEAKEKILKENPDVEVTEIVVTKLPPEKYTVTIKTPDGKTETIPLSAGGSAGGSA [r18_423_JUSTAS] | -0.00229 ± 0.023 | -0.308 ± 0.1
SAGGSAGGSASSPSSPVKVTVTVTAPDSLVKTITVTKTPEGVIDLVLPSDIPSDYKITIIESAGGSAGGSAG [r3_44_JUSTAS] | 0.0537 ± 0.08 | -0.699 ± 0.51
SAGGSAGGSASVSSPERFTVPRPDGTPVEVTLVEPEKGYYEVTDPATGERTRLPIEDIPPVSAGGSAGGSAG [r3_213_JUSTAS] | -0.607 ± 0.12 | < -1
SAGGSAGGSATVDEVIKEAREEAREEHPNYPPGQTHTIKIRDPDNGEKVKIRFTNDGKIEISAGGSAGGSAG [r3_441_TrROS] | -0.0324 ± 0.057 | < -1
SAGGSAGGSDILKNLPPGHKRVEIMFIPNMPMEKMKRMAKEIAPILRKRGVDVEIKVIPPDEMSAGGSAGGS [r12_456_TrROS] | 0.859 ± 0.17 | 0.118 ± 0.36
SAGGSAGGSGMEEAIEKAKKEILEKNPDLPPNAVVNEPILVKDPSTDEEYVIPVTFTIPENNLSAGGSAGGS [r12_591_JUSTAS] | -0.137 ± 0.063 | -0.61 ± 0.67
SAGGSAGGSGMKPAKVLKVEEFFDPKNNTSFKKVEAELPDRKITLELPPGEPVDENSTILVEESAGGSAGGS [r20_49_JUSTAS] | -0.428 ± 0.28 | -0.759 ± 0.47
SAGGSAGGSGMVSSVVKHTVELNVPENRPNAEELAAELRAAHPGVTVVEITETPNKAVITVEESAGGSAGGS [r12_454_JUSTAS] | 0.296 ± 0.062 | < -1
SAGGSAGGSIEIDHDRDPGTNRYTATVEIPDPDGKGLEVEVQMNGDPEDAAKTAAKTVLEEFNSAGGSAGGS [r20_33_TrROS] | 0.07 ± 0.27 | < -1
SAGGSAGGSKIPIHIWVPPGGSPKKAKERIRRYIREQMPPGNKDMPIDDIKIDVHVMPPGQPVSAGGSAGGS [r12_384_TrROS] | -0.427 ± 0.9 | < -1
SAGGSAGGSMDPGQPMEFIQIYPDPDGNLEIHVSEIRIDPDGGAKVTEVEPKRIDDAEDLAKFSAGGSAGGS [r12_386_TrROS] | -0.752 ± 0.19 | < -1
SAGGSAGGSMMKVRVYARNKDGEEVPVEEIEIPPEVETPEEALKLAEELAKKEGVEEVRVEIESAGGSAGGS [r12_569_TrROS_Hall] | -0.13 ± 0.19 | -0.609 ± 0.38
SAGGSAGGSMRFVTIKVPGPDTTFTFDTDGDEALEAKLAELEKKHPEIKKENIEKLEVNPGPGSAGGSAGGS [r12_852_JUSTAS] | -0.345 ± 0.52 | < -1
SAGGSAGGSMSTSESVTVTFPDGSVRKATILKQEKLPNGTVPVEIVDEGGTSVGTRNWTVTAESAGGSAGGS [r12_735_JUSTAS] | -0.456 ± 0.28 | < -1
SAGGSAGGSMVLIEIYFKGPEKPIVFPAEGPEEVVEKLLELVEENPELGLDNIAEIRAYPGEESAGGSAGGS [r12_852_TrMRF] | 0.425 ± 0.074 | 0.0303 ± 0.28
SAGGSAGGSMVLIIVPPSKPELAEEKAKELAEKGEIKEYEIKTVSSEEEAEKLAKNYEKVILESAGGSAGGS [r12_679_JUSTAS] | -0.171 ± 0.083 | -0.324 ± 0.28
SAGGSAGGSMVTTSIDPSGTAKITVTDGGGVPVSTATIPVDPNAILTYDPNNSSISTFSPVSSSAGGSAGGS [r12_1002_JUSTAS] | 0.519 ± 0.032 | -0.442 ± 0.24
SAGGSAGGSMYRYTVTFPNTGTVLEKEFESLEEAKKYIPKDRPIKEIKVEPVEPPVSPEVLLVSAGGSAGGS [r12_851_JUSTAS] | -0.217 ± 0.18 | -0.651 ± 0.26
SAGGSAGGSPDNITFKVPDGPVRIENGNNEQEFPPGKTQTIPPKNPNNMRIEAFPPNIIKITPSAGGSAGGS [r20_150_TrROS] | -0.793 ± 0.45 | < -1
SAGGSAGGSPVTVETSSQTSTVPLPTGPTVTLVTNTTTTTRPVPLSTPRSSSTTTVTTTVTVVSSAGGSAGG [r6_224_JUSTAS] | -0.311 ± 0.11 | < -1

Sequence | folding stability dG unfold [1] [kcal/mol] | folding stability dG unfold [2] [kcal/mol]
SAGGSAGGSSDTRTIPIPIDGYPVRISIDMNGSQTIEFPNPENKDDLKDLIPPGYNITEIEPWSAGGSAGGS [r12_9_TrROS] | -0.999 ± 0.36 | < -1
SAGGSAGGSSPDIEVEITVDAPPGARILGTDGKPVEIPASNPKVKIIVIEGDNSFFIKTEPVGSAGGSAGGS [r12_338_TrMRF] | -0.362 ± 0.22 | < -1
SAGGSAGGSSPEIPLPPEIAEEIEVPGSGTTVLLHPSTGLVLYKPPPEELAVGRYDPSTGVLESAGGSAGGS [r12_420_JUSTAS] | 0.985 ± 0.051 | 0.475 ± 0.15
SAGGSAGGSSPIVVEEEPDRYVITIPPSQPELVEEVLEKLGLPAEDITRTLIPEGLVRYEVPGSAGGSAGGS [r12_493_JUSTAS] | -0.419 ± 0.28 | < -1
SAGGSAGGSTPPLTTETEAVIEIEGGLYSVKVTQLPPDETLMTIPANGMIIRETPDKIEIRPESAGGSAGGS [r12_737_JUSTAS] | -0.374 ± 0.28 | < -1
SAGGSAGGSVEIKSITTVTDPNSSANPTTITVKRDPAKGVLGEEVKAIAKALEEAGYPTTFGTSAGGSAGGS [r12_172_JUSTAS] | -0.769 ± 0.17 | < -1
SAGGSAGGYVEVTIMIPPDDLDEIKEIAEPFGFTSVETERVPDNPMVVVKIEVKIPKEDDKDNKSAGGSAGG [r6_273_TrROS] | 0.427 ± 0.054 | -0.139 ± 0.2
SAGGSALPPDQRLVVIDLGREPGVTPDEPVEVPEELIEKIKKENPNVKLVEVKHEGDKVTLYIAIKSAGGSA [r2_383_JUSTAS] | -0.0124 ± 0.48 | < -1
SAGGSAMIKTYEEEVELTVPGGSTPVKVRVKTIEKIEKDEKGNLKTEVVEVKIETPENAPAVALLLSAGGSA [r15_258_JUSTAS] | -0.327 ± 0.21 | -0.857 ± 0.51
SAGGSAMPPGQPWKIKRTIPFKDPNGWKITIYRMPDDGHVWVRWEPPNGGEREVWMPAEEAEDALKSAGGSA [r15_2_TrROS] | 0.902 ± 0.23 | 0.307 ± 0.58
SAGGSAMVPEDEGLIVVERDVPFDKAEEFVEEVIEELGIPPEKVKKIELFEEKVEDGPALRALVYLSAGGSA [r15_934_TrMRF] | -0.294 ± 0.32 | < -1
SAGGSAPGKKTIKIEIIFPFPEEQAKEFADYIAKGIADETGHDPENIDIKVEVHVFDPANNEPRPFSAGGSA [r15_918_TrROS] | -0.236 ± 0.2 | -0.511 ± 0.25
SAGGSASMITSTLTDPSTGTSSTLPTEVLQKLLDENPPDSNLVLPTGPKPVTVKVEPEKGLATFTGSAGGSA [r15_350_JUSTAS] | 0.153 ± 0.039 | -0.989 ± 0.29
SAGGSASYSSLKITIIDTGTTTTVPPGATTTPTVVKLPDNKTAIITTTTPPDGTTATTVELFDNDKSAGGSA [r15_559_JUSTAS] | -0.717 ± 0.12 | < -1
SAGGSATIKEGQVITRTVTDPSTGKEYEVEITIKKVTKYPASPEGILREEYEIEVKKSPKVSPLKLSAGGSA [r15_248_JUSTAS] | 0.112 ± 0.12 | < -1
SAGGSAVVEIPIPPSSLDVRALIVPTDGPLTTVLVEETLPDGTPRVRLYRYDPARGEVRPLAEELPSAGGSA [r2_402_JUSTAS] | -0.671 ± 0.17 | < -1
SAGGSAYGKKKNDPDGNPKYEMEPQPTIEVPVTIPIFDNNNNPLLEIPIPASMPISDINDEIKDLFSAGGSA [r15_309_TrROS] | -1.57 ± 0.7 | < -1
SAGGSENPNDPRPVVPVGVAVVDIEIHGHPDMTEEERLAAVEEAVEALEGLEVEHPDGHPTILLAGSAGGSA [r2_149_TrMRF] | -0.161 ± 0.071 | < -1
SAGGSGMRKFSPEEAKKKEVVITIPVVTYSPSLKFSPVTVPVTVSGPVTSDEEAKEKVEKAVKELASAGGSA [r2_244_JUSTAS] | -1.03 ± 0.48 | < -1
SAGGSLPADAEVTEVVEDPSKGVVTVKVTVRDSEGKVVEERTVVTPVEPVPPLSPENLKKNLLLTLLSAGGS [r16_697_JUSTAS] | 0.249 ± 0.12 | -0.741 ± 0.94
SAGGSLPVVDGPSDLVETTVYEDGTIEIKVERAEPPGVPTVRTLTITLEPPVGPPKVPPGNPKYLGSAGGSA [r2_368_JUSTAS] | -1.08 ± 0.53 | < -1

Reference: the supplement of paper PMC12764529
